Measured values taken from patent US20220249563A1 (LEGEND BIOTECH IRELAND, published 2022).

T1: extracellular domain of human DLL3 protein (aa27-466) having an N-terminal FLAG tag (AdipoGen, AG-40B-0151) (human, UniProt Q9NYJ7 27-466)
T1 construct: range 27-466; also called DLL3 ECD protein
T1 sequence (looked up): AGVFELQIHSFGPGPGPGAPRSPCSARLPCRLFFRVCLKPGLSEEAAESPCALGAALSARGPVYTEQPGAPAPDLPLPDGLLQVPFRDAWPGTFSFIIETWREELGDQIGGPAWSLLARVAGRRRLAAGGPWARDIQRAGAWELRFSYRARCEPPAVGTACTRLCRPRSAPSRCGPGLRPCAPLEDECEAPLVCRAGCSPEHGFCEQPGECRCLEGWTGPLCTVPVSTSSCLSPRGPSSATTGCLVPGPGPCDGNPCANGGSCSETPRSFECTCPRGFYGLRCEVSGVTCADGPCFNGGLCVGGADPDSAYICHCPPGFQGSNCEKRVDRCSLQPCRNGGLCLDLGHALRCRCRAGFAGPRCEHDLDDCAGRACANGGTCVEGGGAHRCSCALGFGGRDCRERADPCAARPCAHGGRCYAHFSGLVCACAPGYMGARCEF

B1: AS64183 (VHH)
VHH: QVHLVESGGGSVQAGGSLRLSCAASGHTYSANCMAWFRRAPGKEREWVASVYTDDDSTMYTDSVKGRFTIFQDNAKNTVYLQMNSLKPEDTGMYICAADLSGGPAGCGYTHWGQGTQVTVSS
notes: camel sdAb; crude E. coli supernatant
B2: AS64562 (VHH)
VHH: EVQLVESGGGSVQAGGSLRLSCAASGYTARRDFMAWFRQVPGKEREGVAVIHTGGDTTYYADSVKGRFTISRDNAQNIMNLQMNSLKPEDTAMYYCAAGFRPRGGGYTGDVLAQAAAYNYWGQGTQVTVSS
notes: as for B1
B3: AS64135 (VHH)
VHH: QVKLVESGGGSVQAGGSLRLSCVASTSTYCRYYMRWYRQAPGKEREFVSAMQPDGTTSYSDSVKGRFTMSQDRANNMLYLQMNSLRPEDTAMYYCKRDPMGGSRTPCTSAWGQGTQVTVSS
notes: as for B1
B4: AS64605 (VHH)
VHH: QVKLVESGGGSVQAGGSLRLSCAVSRYPYSSICMGWFRQAPGKESEGVARIYTGTGSTWYTDSVKGRFTIARDNAQNTVYLQMNSLKPEDTAMYYCAARSNSYSYSSCDYGPLTRGGYNFWGQGTQVTVSS
notes: as for B1
B5: AS68170 (VHH)
VHH: QVQLVESGGGSVQAGGSLRLSCTASGYTYRSNCMGWFRQAPGKEREGVATIYTGGGRNLYYADSVKGRFTISRDNAKNTLYLQMNSLKPEDSARYYCAAASDVAVGVNSCGGRTAGFDAWGQGTQVTVSS
notes: as for B1
B6: AS64116 (VHH)
VHH: QVKLVESGGGSVQAGGSLRLSCAASGYIYSCVGWFRQAPGKEREGVAGISTGGGGTVYADSVKGQFTISRDNAKNTVYLQMDSLKPEDTAMYYCAADRWNSFANCGAWGRYTYWGQGTQVTVSS
notes: as for B1
B7: AS64594 (VHH)
VHH: QVHLVESGGGSVQAGGSLRLSCAASGYTYNSNYMGWFRQAPGKEREGVALIYTGGGSTYYADSVKGRFTISRDNAKNTVYLQMNSLKPEDTAMYYCSVRTQTRNYWGQGTQVTVSS
notes: as for B1
B8: AS64336 (VHH)
VHH: QVQLVESGGGSVQAGGSLRLSCTTSGRTYSSCSMGWYRQAPGKERELVSHIFSDGSRYYADSVKGRFTISQDNAKNTVYLQMNSLKPEDTAMYYCNRRTGWAPRCAVPGYWGQGTQVTVSS
notes: as for B1
B9: AS64346 (VHH)
VHH: QVHLVESGGGSVQAGGSLRLSCAASGYTYFMGWFRQAPQKEREWVATIGTGDIFNGAAYYVDSVKGRFAISQDNAKNTVYLQMNSLKPEDTAVYVCAAVQSKSSNYVLRDASTYNYWGQGTQVTVSS
notes: as for B1
B10: AS64475 (VHH)
VHH: QVQLQESGGGSVQAGGSLRLSCAASGYTWSRNWMGWFRQAPGKEREGFATITISGGSTWYADSVKGRFTISLDNAGNTVYLQMNSLKPEDTAMYYCAARDTARTYWGQGTQVTVSS
notes: as for B1
B11: AS63964 (VHH)
VHH: QVRLVESGGGSVQAGGSLRLSCSASGYTYSYNNMGWFRQAPGNEREGVAAISGGRFTAYADSVKGRFTISRDNAENTLYLQMNNLKPEDTGMYYCAAEVVDPTWGSRDQRRYKYWGQGTQVTVSS
notes: as for B1
B12: AS63948 (VHH)
VHH: QVQLVESGGGSVQAGGSLRLSCTASGYTYRYLYMGWFRQTPGKEREGVACIYTGSGSTGYADSVKGRFTISQDNAENTVYLQMNSLKPEDTAMYYCAAASPRWGGTCRRWSEYNYWGQGTQVTVSS
notes: as for B1
B13: AS64182 (VHH)
VHH: QVHLMESGGGSVQAGGSLRLSCTASGQTSRYLYMGWFRQTPGKEREGVACIYTGSGSTGYADSVKGRFTISQDNAKNTVYLQTNSLKPEDTAMYYCAASSPHWGGTCRRWSEYKYWGQGTQVTVSS
notes: as for B1
B14: AS64154 (VHH)
VHH: QVQLKESGGGSVQAGGSLRLSCTASGYTYRYLYMGWFRQTPGKEREGVACIYTGSGSTGYADSVKGRFTISQDNAKNTVYLQMNNLKPEDTAMYYCAASSPRWGGTCRRWSQYNYWGQGTQVTVSS
notes: as for B1
B15: AS64473 (VHH)
VHH: QVRLVESGGGSVQAGGSLRLSCTASGYTYRYLYMAWFRQTPGKEREGVACIYTGSGTTGYADSVKGRFTISQDNAKNTVYLQMNSLNAEDTAMYYCAASSPQWGGTCRRWSEYNYWGQGTQVTVSS
notes: as for B1
B16: AS64118 (VHH)
VHH: QVQLAESGGGSVQAGGSLRLSCAASGYTYSACRMAWYRQAPGKERELVSFINSAGSTYYADSVKGRFAISRDNAKTTVYLQMNALKAEDTAIYYCNTWDSSCRFQYWGQGTQVTVSS
notes: as for B1
B17: AS64420 (VHH)
VHH: EVQLVESGGGSVQAEGSLRLSCAASGDTSRSVWMGWARQVPGKEREVVATISTAGGSTWYTDSVKGRFTISQDNAKNTVYLQMNSLKPEDTAIYYCAARSRYATYWGQGTQVTVSS
notes: as for B1
B18: AS64583 (VHH)
VHH: EVQLAESGGGLVQAGGSLRLSCTASGFTIAVYTMGWFRQAPGKEREGISCTSWAGGRTYTADSVKGRFTISRDNAKNTLYLQMNSLKPEDTAMYYCAAKAHPDCSGDWSPSGYEYWGQGTQVTVSS
notes: as for B1
B19: AS64276 (VHH)
VHH: QVHLMESGGGSVQAGGSLSLSCVVSGYTGSSRCMAWFRQAPGKEREAVAQIFTGRGTTGYADSVKGRFTISQDNAKNTVYLRMNSLRPEDTAIYYCAASLGPGRGACGYNYWGQGTQVTVSS
notes: as for B1
B20: AS64163 (VHH)
VHH: QVRLVESGGGSVQAGGSLRLSCAVSGYRYRWNCMAWFRQAPGKEREGVAAISTGSGSTYYAGSVKGRFTISQDNAKNMYLQMNSLKPEDTAMYYCAADPSVCPGGMWYSKEYRYWGQGTQVTVSS
notes: as for B1
B21: AS64120 (VHH)
VHH: QVRLVESGGGSVQAGGSLRLSCETSRYIYGNNCMAWFRQAPGKEREGVASIYPAGGRPYYADSVKGRFTISQDNAKNTVYLQMDSLKPEDTAMYYCAARSFSIADCATQSGITRSNFAYWGQGTQVTVSS
notes: as for B1
B22: AS64093 (VHH)
VHH: QVHLVESGGGSVQAGGSLRLSCATSRYIYGNNCMAWFRQAPGKEREGVASIYPAGGRTYYADSVKGRFTISQDNAKNTVYLQIDSLKPEDTAMYYCAARSFSIGVCATQSGITWSNFAYWGQGTQVTVSS
notes: as for B1
B23: AS63951 (VHH)
VHH: QVHLMESGGGSVQAGGSLRLACETSRDIYGNNCMAWFRQAPGKEREGVASIYPAGGRPYYADSVKGRFTISQDNAKNTVYLQMDSLKPEDTAMYYCAARSFSIAVCATRSGITRSNFAYWGQGTQVTVSS
notes: as for B1
B24: AS64124 (VHH)
VHH: QVKLVESGGGSVQTGGSLRLSCAVSTYTPSNNYMGWFRQAPGKEREGVAAIATIGGTTRYADSVKGRFTISQDGAKNTIYLQMNGLKPEDTAMYYCAAGRPYSLPLPLPLESGAYRYWGQGTQVTVSS
notes: as for B1
B25: AS63930 (VHH)
VHH: EVQLAESGGGSVQAGGSLRLSCAASGYTYSGNYMAWFRQAPGNEREGVAVVYNIDGGGRFTTYADSVKGRFTISRGNDKNTVYLQMNSLKPEDSGMYYCAAEVADPTWGSRDQRRYKYWGQGTQVTVSS
notes: as for B1
B26: AS63984 (VHH)
VHH: QVKLVESGGGSVQAGGSLRLSCAASGYTYSSNFMGWFRQAPGKEREGVATIVSGGGTTYYADSVRGRFTISQDNAKNTVYLQMNSLKPEDTAMYYCAAGGPVTNAPRWYPLRPPGYNYWGQGTQVTVSS
notes: as for B1
B27: AS64207 (VHH)
VHH: EVQLVESGGGSVQAGGSLRLSCAASGYTYSSNFMGWFRQAPGKEREGVATIVSGGGTTYYADSVRGRFTISQDNAKNTVYLQMNSLKPEDTAMYYCAAGGPPTNGAKWYPLRPPGYNYWGQGTQVTVSS
notes: as for B1
B28: AS68121 (VHH)
VHH: EVQLAESGGGSVQAGGSLRLSCDASGYTYSRNCMGWFRQAPGKEREGVAAFYTDYIRFGRTYYADSVKGRFTIFQDNAKNTVYLQMNSLKPEDTAMYYCAADPGSRTDDSCGTSYNKGNFGYWGQGTQVTVSS
notes: as for B1
B29: AS64513 (VHH)
VHH: EVQLVESGGGSVQAGGSLRLSCVASDYPYIDNCMGWFRQGPGKEREGVAAACTGGGSTYYADSVKGRFTISRDNAKNTVYLQMNSLKPEDTDVYYCATGYYSGSGPGYLLPWRYNYWGQGTQVTVSS
notes: as for B1

These binders were tested against T1, extracellular domain of human DLL3 … (assay: ELISA (protein), FACS (cells)).

Binding result, binds:
B1
B2
B3
B4
B5
B6
B7
B8
B9
B10
B11
B12
B13
B14
B15
B16
B17
B18
B19
B20
B21
B22
B23
B24
B25
B26
B27
B28
B29
